Test results taken from IntAct's records for PubMed 31515488.

B1: Mothers against decapentaplegic homolog 3 (Homo sapiens), P84022 (parent)
chain: MSSILPFTPPIVKRLLGWKKGEQNGQEEKWCEKAVKSLVKKLKKTGQLDELEKAITTQNVNTKCITIPRSLDGRLQVSHRKGLPHVIYCRLWRWPDLHSHHELRAMELCEFAFNMKKDEVCVNPYHYQRVETPVLPPVLVPRHTEIPAEFPPLDDYSHSIPENTNFPAGIEPQSNIPETPPPGYLSEDGETSDHQMNHSMDAGSPNLSPNPMSPAHNNLDLQPVTYCEPAFWCSISYYELNQRVGETFHASQPSMTVDGFTDPSNSERFCLGLLSNVNRNAAVELTRRHIGRGVRLYYIGGEVFAECLSDSAIFVQSPNCNQRYGWHPATVCKIPPGCNLKIFNNQEFAALLAQSVNQGFEAVYQLTRMCTIRMSFVKGWGAEYRRQTVTSTPCWIELHLNGPLQWLDKVLTQMGSPSIRCSSVS
partner: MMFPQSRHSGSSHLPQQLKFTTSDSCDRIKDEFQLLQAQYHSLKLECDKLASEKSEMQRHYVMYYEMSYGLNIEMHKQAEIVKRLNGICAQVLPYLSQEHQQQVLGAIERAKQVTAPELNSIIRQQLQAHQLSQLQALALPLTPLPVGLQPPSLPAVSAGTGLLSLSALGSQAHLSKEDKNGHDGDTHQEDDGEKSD
B2: Angiomotin (Homo sapiens), Q4VCS5 (parent)
chain: MRNSEEQPSGGTTVLQRLLQEQLRYGNPSENRSLLAIHQQATGNGPPFPSGSGNPGPQSDVLSPQDHHQQLVAHAARQEPQGQEIQSENLIMEKQLSPRMQNNEELPTYEEAKVQSQYFRGQQHASVGAAFYVTGVTNQKMRTEGRPSVQRLNPGKMHQDEGLRDLKQGHVRSLSERLMQMSLATSGVKAHPPVTSAPLSPPQPNDLYKNPTSSSEFYKAQGPLPNQHSLKGMEHRGPPPEYPFKGMPPQSVVCKPQEPGHFYSEHRLNQPGRTEGQLMRYQHPPEYGAARPAQDISLPLSARNSQPHSPTSSLTSGGSLPLLQSPPSTRLSPARHPLVPNQGDHSAHLPRPQQHFLPNQAHQGDHYRLSQPGLSQQQQQQQQQHHHHHHHQQQQQQQPQQQPGEAYSAMPRAQPSSASYQPVPADPFAIVSRAQQMVEILSDENRNLRQELEGCYEKVARLQKVETEIQRVSEAYENLVKSSSKREALEKAMRNKLEGEIRRMHDFNRDLRERLETANKQLAEKEYEGSEDTRKTISQLFAKNKESQREKEKLEAELATARSTNEDQRRHIEIRDQALSNAQAKVVKLEEELKKKQVYVDKVEKMQQALVQLQAACEKREQLEHRLRTRLERELESLRIQQRQGNCQPTNVSEYNAAALMELLREKEERILALEADMTKWEQKYLEENVMRHFALDAAATVAAQRDTTVISHSPNTSYDTALEARIQKEEEEILMANKRCLDMEGRIKTLHAQIIEKDAMIKVLQQRSRKEPSKTEQLSCMRPAKSLMSISNAGSGLLSHSSTLTGSPIMEEKRDDKSWKGSLGILLGGDYRAEYVPSTPSPVPPSTPLLSAHSKTGSRDCSTQTERGTESNKTAAVAPISVPAPVAAAATAAAITATAATITTTMVAAAPVAVAAAAAPAAAAAPSPATAAATAAAVSPAAAGQIPAAASVASAAAVAPSAAAAAAVQVAPAAPAPVPAPALVPVPAPAAAQASAPAQTQAPTSAPAVAPTPAPTPTPAVAQAEVPASPATGPGPHRLSIPSLTCNPDKTDGPVFHSNTLERKTPIQILGQEPDAEMVEYLI
partner: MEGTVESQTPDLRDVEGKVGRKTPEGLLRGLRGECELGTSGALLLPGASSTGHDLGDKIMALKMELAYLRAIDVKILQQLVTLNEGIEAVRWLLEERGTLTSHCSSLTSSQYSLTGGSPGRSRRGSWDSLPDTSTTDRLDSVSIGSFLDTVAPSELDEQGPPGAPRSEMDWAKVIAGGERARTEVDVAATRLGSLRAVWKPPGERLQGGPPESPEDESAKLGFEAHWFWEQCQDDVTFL
B3: Zinc finger protein 473 (Homo sapiens), Q8WTR7 (parent)
chain: MAEEFVTLKDVGMDFTLGDWEQLGLEQGDTFWDTALDNCQDLFLLDPPRPNLTSHPDGSEDLEPLAGGSPEATSPDVTETKNSPLMEDFFEEGFSQEIIEMLSKDGFWNSNFGEACIEDTWLDSLLGDPESLLRSDIATNGESPTECKSHELKRGLSPVSTVSTGEDSMVHNVSEKTLTPAKSKEYRGEFFSYSDHSQQDSVQEGEKPYQCSECGKSFSGSYRLTQHWITHTREKPTVHQECEQGFDRNASLSVYPKTHTGYKFYVCNEYGTTFSQSTYLWHQKTHTGEKPCKSQDSDHPPSHDTQPGEHQKTHTDSKSYNCNECGKAFTRIFHLTRHQKIHTRKRYECSKCQATFNLRKHLIQHQKTHAAKTTSECQECGKIFRHSSLLIEHQALHAGEEPYKCNERGKSFRHNSTLKIHQRVHSGEKPYKCSECGKAFHRHTHLNEHRRIHTGYRPHKCQECVRSFSRPSHLMRHQAIHTAEKPYSCAECKETFSDNNRLVQHQKMHTVKTPYECQECGERFICGSTLKCHESVHAREKQGFFVSGKILDQNPEQKEKCFKCNKCEKTFSCSKYLTQHERIHTRGVKPFECDQCGKAFGQSTRLIHHQRIHSRVRLYKWGEQGKAISSASLIKLQSFHTKEHPFKCNECGKTFSHSAHLSKHQLIHAGENPFKCSKCDRVFTQRNYLVQHERTHARKKPLVCNECGKTFRQSSCLSKHQRIHSGEKPYVCDYCGKAFGLSAELVRHQRIHTGEKPYVCQECGKAFTQSSCLSIHRRVHTGEKPYRCGECGKAFAQKANLTQHQRIHTGEKPYSCNVCGKAFVLSAHLNQHLRVHTQETLYQCQRCQKAFRCHSSLSRHQRVHNKQQYCL

Variants of: B1
Details: with tle5_human TLE5, Q08117

| effect of a mutation on the interaction | Variant |
| --- | --- |
| with no effect | I170V |

Variants of: B2
Details: with lura1_human LURAP1, Q96LR2

| effect of a mutation on the interaction | Variant |
| --- | --- |
| with no effect | T899A |

Variants of: B3
Details: with gpt2l_human GPATCH2L

| effect of a mutation on the interaction | Variant |
| --- | --- |
| with no effect | S662A |
| with no effect | Y456H |
| with no effect | E309G |

More lines, now with the values behind:

| Variant | effect of a mutation on the interaction |
| --- | --- |
| R223C | with no effect |
| S59G | with no effect |

Variants of: B3
Details: with zn792_human ZNF792, Q3KQV3
Chain of zn792_human ZNF792, Q3KQV3 (Q3KQV3 whole entry): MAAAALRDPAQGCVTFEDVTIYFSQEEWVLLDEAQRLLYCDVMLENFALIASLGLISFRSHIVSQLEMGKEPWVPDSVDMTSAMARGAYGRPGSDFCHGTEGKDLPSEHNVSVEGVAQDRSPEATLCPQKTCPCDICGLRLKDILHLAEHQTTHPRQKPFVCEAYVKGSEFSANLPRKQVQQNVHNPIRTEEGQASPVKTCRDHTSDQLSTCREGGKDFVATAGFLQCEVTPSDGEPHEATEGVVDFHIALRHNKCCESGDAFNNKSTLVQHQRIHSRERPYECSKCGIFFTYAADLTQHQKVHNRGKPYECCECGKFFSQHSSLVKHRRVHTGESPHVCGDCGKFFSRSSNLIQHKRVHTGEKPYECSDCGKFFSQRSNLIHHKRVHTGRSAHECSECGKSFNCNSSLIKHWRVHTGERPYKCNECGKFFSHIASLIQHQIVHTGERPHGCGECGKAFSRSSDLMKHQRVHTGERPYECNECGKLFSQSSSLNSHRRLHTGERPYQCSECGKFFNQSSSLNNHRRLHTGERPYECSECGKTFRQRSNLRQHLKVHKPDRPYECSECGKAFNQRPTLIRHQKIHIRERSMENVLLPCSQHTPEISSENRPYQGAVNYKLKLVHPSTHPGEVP

| effect of a mutation on the interaction | Variant |
| --- | --- |
| with no effect | S662A |
| with no effect | Y456H |
| with no effect | E309G |

The remaining lines, values behind:

| Variant | effect of a mutation on the interaction |
| --- | --- |
| R223C | with no effect |
| T164M | with no effect |

Variants of: B3
Details: with tri41_human TRIM41, Q8WV44

| effect of a mutation on the interaction | Variant |
| --- | --- |
| with no effect | S662A |
| with no effect | Y456H |
| with no effect | E309G |

The next lines start with the variant.

| Variant | effect of a mutation on the interaction |
| --- | --- |
| R223C | with no effect |
| S59G | with no effect |
| T164M | with no effect |

Variants of: B3
Details: with aen_human AEN

| effect of a mutation on the interaction | Variant |
| --- | --- |
| with no effect | S662A |
| with no effect | Y456H |
| with no effect | E309G |

Further lines, the variant ahead of its results:

| Variant | effect of a mutation on the interaction |
| --- | --- |
| R223C | with no effect |
| S59G | with no effect |
| T164M | with no effect |

Variants of: B3
Details: with ntf2_human NUTF2, P61970
Chain of ntf2_human NUTF2, P61970 (P61970 whole entry): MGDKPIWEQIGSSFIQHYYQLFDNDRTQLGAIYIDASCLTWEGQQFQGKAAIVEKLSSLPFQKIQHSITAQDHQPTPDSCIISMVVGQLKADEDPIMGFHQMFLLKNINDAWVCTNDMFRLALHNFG

| effect of a mutation on the interaction | Variant |
| --- | --- |
| with no effect | S59G |

Variants of: B3
Details: with zn792_human ZNF792, Q3KQV3
Remark: another data set of the same source

| effect of a mutation on the interaction | Variant |
| --- | --- |
| with no effect | S59G |
